Measurements taken from patent US20190263932A1 (Eli Lilly, published 2019).

T1: Rabbit TrkA Extracellular Domain (33-414) (rabbit)
T1 construct: SPR analyte; not shown: C-terminal polyhistidine tag (unknown length)
T1 chain: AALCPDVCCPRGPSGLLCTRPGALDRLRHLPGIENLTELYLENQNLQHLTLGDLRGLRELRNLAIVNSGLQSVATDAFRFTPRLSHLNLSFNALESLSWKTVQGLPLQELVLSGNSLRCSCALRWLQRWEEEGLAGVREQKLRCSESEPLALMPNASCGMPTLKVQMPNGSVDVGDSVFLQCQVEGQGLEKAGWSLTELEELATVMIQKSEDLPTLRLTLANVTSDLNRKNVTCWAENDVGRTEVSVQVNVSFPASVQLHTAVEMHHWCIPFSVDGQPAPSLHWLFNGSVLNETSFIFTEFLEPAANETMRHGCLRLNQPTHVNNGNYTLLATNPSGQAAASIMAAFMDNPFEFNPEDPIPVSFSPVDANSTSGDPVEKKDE

T2: Cynomolgus monkey TrkA Extracellular Domain (59-434) (cynomolgus monkey, UniProt P04629 35-414 (human entry))
T2 construct: SPR analyte
T2 chain: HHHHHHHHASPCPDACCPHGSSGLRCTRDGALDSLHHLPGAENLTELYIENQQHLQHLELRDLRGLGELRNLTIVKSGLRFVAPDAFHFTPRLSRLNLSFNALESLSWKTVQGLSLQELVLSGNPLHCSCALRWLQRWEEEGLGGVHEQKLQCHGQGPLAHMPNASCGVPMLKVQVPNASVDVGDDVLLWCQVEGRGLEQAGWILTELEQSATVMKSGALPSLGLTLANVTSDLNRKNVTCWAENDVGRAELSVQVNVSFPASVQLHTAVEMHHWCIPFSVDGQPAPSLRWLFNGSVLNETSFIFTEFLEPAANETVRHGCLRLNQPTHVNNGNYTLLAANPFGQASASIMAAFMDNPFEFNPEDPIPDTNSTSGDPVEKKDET


Key:
[1] = target: T1, Rabbit TrkA Extracellular Domain …; experiment: SPR, mAb captured on Protein A chip, 37 C
Method: (§1) The binding kinetics and affinity of exemplified antibodies to human, cynomolgus monkey, rat, mouse, and rabbit TrkA are determined as described below using a surface plasmon resonance assay on a BIACORE™ 8K instrument (GE Healthcare). Two different isoforms of human TrkA (isoform 1 and isoform 2) are evaluated along with human TrkB and human TrkC. […] All FC2 on all eight channels are set to capture approximately 89 response units (RU) of antibody at a flow rate of 10 μL/min. The antibody sample is prepared at 1 μg/mL by dilution into the running buffer. […] Before the analysis cycle, the chip is regenerated with 3 injections of glycine (pH ˜1.5) at 100 μL/min for a contact time of 15 seconds on FC1 and FC2 in order to clean the surface of the chip.

[2] = target: T3, Human TrkA Extracellular Domain Isoform 1 (33-414) (human, UniProt P04629 33-414); experiment: SPR, mAb captured on Protein A chip, 37 C
T3 construct: SPR analyte; also called Human TrkA Isoform 1
T3 sequence (P04629 other isoform, or with tags, fused parts or gaps): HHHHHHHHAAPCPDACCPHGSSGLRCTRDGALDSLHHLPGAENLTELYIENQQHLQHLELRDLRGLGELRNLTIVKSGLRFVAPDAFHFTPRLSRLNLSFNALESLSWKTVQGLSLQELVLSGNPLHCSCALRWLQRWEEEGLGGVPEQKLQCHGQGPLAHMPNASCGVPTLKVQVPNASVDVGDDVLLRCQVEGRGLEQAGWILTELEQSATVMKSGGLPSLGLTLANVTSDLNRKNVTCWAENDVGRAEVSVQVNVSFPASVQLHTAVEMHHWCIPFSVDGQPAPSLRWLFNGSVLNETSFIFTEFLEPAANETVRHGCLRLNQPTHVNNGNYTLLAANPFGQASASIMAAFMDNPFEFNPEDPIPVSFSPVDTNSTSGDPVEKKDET
Method: as §1

[3] = target: T2, Cynomolgus monkey TrkA Extracellular …; experiment: SPR, mAb captured on Protein A chip, 37 C
Method: as §1

[4] = target: T4, Mouse TrkA Extracellular Domain (33-417 with 396-401 deletion) (mouse, UniProt Q3UFB7 34-417); experiment: SPR, mAb captured on Protein A chip, 37 C
T4 construct: SPR analyte
T4 sequence (Q3UFB7 other isoform, or with tags, fused parts or gaps limits assumed): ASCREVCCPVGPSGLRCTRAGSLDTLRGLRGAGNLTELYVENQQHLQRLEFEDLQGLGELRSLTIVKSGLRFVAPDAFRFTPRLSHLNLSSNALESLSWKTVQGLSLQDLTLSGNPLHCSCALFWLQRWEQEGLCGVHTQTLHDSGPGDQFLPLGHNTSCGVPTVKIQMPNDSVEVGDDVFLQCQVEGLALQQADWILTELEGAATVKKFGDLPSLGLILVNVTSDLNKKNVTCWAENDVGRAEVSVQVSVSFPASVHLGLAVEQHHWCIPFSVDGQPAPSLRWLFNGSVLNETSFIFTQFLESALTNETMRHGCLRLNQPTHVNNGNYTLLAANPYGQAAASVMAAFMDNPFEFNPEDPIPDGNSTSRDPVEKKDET
Method: as §1

[5] = target: T5, Human TrkA Extracellular Domain Isoform 2 (33-408) (human, UniProt P04629 33-414); experiment: SPR, mAb captured on Protein A chip, 37 C
T5 construct: SPR analyte; also called Human TrkA Isoform 2
T5 sequence (P04629 other isoform, or with tags, fused parts or gaps): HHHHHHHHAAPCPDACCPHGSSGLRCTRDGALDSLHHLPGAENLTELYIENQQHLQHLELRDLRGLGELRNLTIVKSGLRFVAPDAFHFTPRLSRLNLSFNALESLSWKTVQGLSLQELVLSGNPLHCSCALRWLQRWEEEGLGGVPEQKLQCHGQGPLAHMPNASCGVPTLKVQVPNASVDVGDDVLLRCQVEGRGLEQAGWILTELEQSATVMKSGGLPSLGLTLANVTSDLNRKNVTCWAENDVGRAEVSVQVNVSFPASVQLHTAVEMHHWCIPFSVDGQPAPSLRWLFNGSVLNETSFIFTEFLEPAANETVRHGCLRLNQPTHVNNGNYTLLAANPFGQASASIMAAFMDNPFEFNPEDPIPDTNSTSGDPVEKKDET
Method: as §1

[6] = target: T6, recombinant human TrkA protein (human, UniProt P04629-2 34-407, limits assumed); experiment: NGF-blocking ELISA on coated human TrkA, 100 nM btNGF; mAb 5 nM
T6 sequence (P04629 other isoform, or with tags, fused parts or gaps limits assumed): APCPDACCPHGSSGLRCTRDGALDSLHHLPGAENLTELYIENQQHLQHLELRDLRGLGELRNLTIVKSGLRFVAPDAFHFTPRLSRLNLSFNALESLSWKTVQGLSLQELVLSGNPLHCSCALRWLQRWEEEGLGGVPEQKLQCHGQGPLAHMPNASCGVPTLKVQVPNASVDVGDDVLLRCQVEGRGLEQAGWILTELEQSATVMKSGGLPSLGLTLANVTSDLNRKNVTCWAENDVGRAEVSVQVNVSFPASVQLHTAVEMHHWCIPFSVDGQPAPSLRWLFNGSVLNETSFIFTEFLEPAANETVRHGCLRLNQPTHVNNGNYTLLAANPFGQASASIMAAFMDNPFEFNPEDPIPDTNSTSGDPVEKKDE
Method: (§2) Each row of a 96-well high-binding clear-bottom microtiter plate (Microlon, #655061) was coated overnight at 4° C. with 100 μL/well of recombinant human TrkA protein, diluted to 2 μg/mL in phosphate buffered saline, pH 7.2 (PBS). The next day, the coating solution was removed, and the plate was blocked with 150 μL of Casein-PBS (Thermo Scientific, #37528) for 1 hour at 25° C. with gentle shaking. The plate was then washed three times with PBS supplemented with 0.05% Tween20 (PBST). A two-fold dilution series of exemplified antibodies, along with IgG4 and IgG1 isotype control antibodies, was generated starting at 20 nM in Casein-PBS. 100 μL of the each dilution series sample was added to a well for 30 min at 37° C. with gentle shaking. The plate was then washed three times with PBST. […] The plate was then washed three times with PBST. A 1:3500 dilution of a 1 mg/mL stock solution of streptavidin-HRP (Thermo Scientific, #21130) in Casein-PBS was prepared and […] was added to each well for 20 min at 37° C. with gentle shaking. The plate was washed three times with PBST. […] The reaction was stopped by addition of 100 μL of 1M H₃PO₄ to each well. The absorbance at 450 nm (Abs450) was measured using a SpectraMax 340PC plate reader (Molecular Devices).

[7] = target: rat TrkA receptor expressed in transfected HEK293 cells (rat, UniProt P35739 33-799); experiment: cell-based or functional assay
rat TrkA receptor expressed in transfected HEK293 cells, sequence (P35739 33-799): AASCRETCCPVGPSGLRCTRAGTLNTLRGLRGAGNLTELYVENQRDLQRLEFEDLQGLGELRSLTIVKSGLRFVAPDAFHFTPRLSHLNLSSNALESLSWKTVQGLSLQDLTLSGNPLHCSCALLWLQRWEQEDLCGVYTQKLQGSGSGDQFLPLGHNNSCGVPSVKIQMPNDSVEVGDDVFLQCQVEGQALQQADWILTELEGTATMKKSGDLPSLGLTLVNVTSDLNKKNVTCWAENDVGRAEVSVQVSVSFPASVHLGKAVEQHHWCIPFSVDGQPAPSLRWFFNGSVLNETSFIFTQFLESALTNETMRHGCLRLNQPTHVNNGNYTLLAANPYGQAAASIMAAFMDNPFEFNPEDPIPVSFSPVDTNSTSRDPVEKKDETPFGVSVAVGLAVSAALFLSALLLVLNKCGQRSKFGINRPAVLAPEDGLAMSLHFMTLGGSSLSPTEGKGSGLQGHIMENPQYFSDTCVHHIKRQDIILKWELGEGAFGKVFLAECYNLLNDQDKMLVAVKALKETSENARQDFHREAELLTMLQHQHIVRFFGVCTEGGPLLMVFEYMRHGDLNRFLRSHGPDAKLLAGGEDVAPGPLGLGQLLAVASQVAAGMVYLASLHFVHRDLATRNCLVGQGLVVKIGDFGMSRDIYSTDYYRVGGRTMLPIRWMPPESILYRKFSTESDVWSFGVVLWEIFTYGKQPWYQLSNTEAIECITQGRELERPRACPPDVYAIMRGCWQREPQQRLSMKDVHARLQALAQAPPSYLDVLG

[8] = target: T6, recombinant human TrkA protein; experiment: NGF-blocking ELISA on coated human TrkA, 100 nM btNGF
Method: as §2

[9] = target: TrkA on rat NEUROSCREEN-1 cells (pheochromocytoma PC12 subclone) (rat, UniProt P35739 33-799); experiment: cell-based or functional assay
TrkA on rat NEUROSCREEN-1 cells (pheochromocytoma PC12 subclone), sequence (P35739 33-799): as above

[10] = target: T6, recombinant human TrkA protein; experiment: NGF-blocking ELISA on coated human TrkA, 100 nM btNGF; mAb 0.31 (printed pM, two-fold series gives nM)
Method: as §2

Row | Kd [1] | koff [1] | kon [1] | Kd [2] | koff [2] | kon [2] | Kd [3] | koff [3] | kon [3] | Kd [4] | koff [4] | kon [4] | Kd [5] | koff [5] | kon [5] | Absorbance 450 nm [6] | % Max Inhibition, pTrkA [7] | IC50 (nM), pTrkA [7] | pTrkA counts per second, NGF +0.1 pM mAb [7] | pTrkA counts per second, NGF +1 pM mAb [7] | Binder | also measured
1 | 2.9 nM | 0.00061 s⁻¹ | 210000 M⁻¹ s⁻¹ | 3.9 nM | 0.00069 s⁻¹ | 180000 M⁻¹ s⁻¹ | 3.6 nM | 0.00069 s⁻¹ | 190000 M⁻¹ s⁻¹ | 6.1 nM | 0.00069 s⁻¹ | 110000 M⁻¹ s⁻¹ | 4.1 nM | 0.00072 s⁻¹ | 180000 M⁻¹ s⁻¹ | 0.2 | 82% | 0.57 nM | 1.83e+06 counts per second | 2.09e+06 counts per second | mAb A (antibody, human IgG4 S228P, kappa, F234A L235A, V domains shown, Human IgG4PAA/Kappa) VH: EVQLVESGGGLVKPGGSLRLSCAASGFTFSGVSINWVRQAPGKGLEWVSSETTSSGTIYYADSVKGRFTISRDNAKNSLYLQMNSLRAEDTAVYYCARSYYYGMDVWGQGTTVTVSS VL: DIVMTQTPLSSPVTLGQPASISCRSSQSLVHRNGNTYLSWLQQRPGQPPRLLIYKISNRFSGVPDRFSGSGAGTDFTLKISRVEAEDVGVYYCMQARQFPLTFGGGTKVEIKR | pTrkA counts per second, NGF +10 pM mAb [7]: 2.2e+06 counts per second; pTrkA counts per second, NGF +100 pM mAb [7]: 1.69e+06 counts per second; pTrkA counts per second, NGF +1 nM mAb [7]: 1.15e+06 counts per second; pTrkA counts per second, NGF +10 nM mAb [7]: 710000 counts per second; pTrkA counts per second, NGF +100 nM mAb [7]: 544000 counts per second; pTrkA counts per second, NGF +1 uM mAb [7]: 580000 counts per second; IC50 [8]: 0.34 nM; % Max Stimulation of neurite outgrowth [9]: 7%; IC50, inhibition of NGF-induced neurite outgrowth [9]: 0.1 nM; Absorbance 450 nm [10]: 0.73
2 | 4.7 nM | 0.0011 s⁻¹ | 220000 M⁻¹ s⁻¹ | 6.7 nM | 0.0013 s⁻¹ | 200000 M⁻¹ s⁻¹ | 6.6 nM | 0.0013 s⁻¹ | 200000 M⁻¹ s⁻¹ | 10.2 nM | 0.0012 s⁻¹ | 120000 M⁻¹ s⁻¹ | 6.6 nM | 0.0013 s⁻¹ | 200000 M⁻¹ s⁻¹ | 0.16 | 65% | 1.6 nM | 3.38e+06 counts per second | 3.05e+06 counts per second | mAb C (antibody, human IgG4 S228P, kappa, F234A L235A, Human IgG4PAA/Kappa) heavy: not shown light: DIVMTQTPLSSPVTLGQPASISCRSSQSLVHRQGNTYLSWLQQRPGQPPRLLIYKISNRFSGVPDRFSGSGAGTDFTLKISRVEAEDVGVYYCMQARQFPLTFGGGTKVEIKRTVAAPSVFIFPPSDEQLKSGTASVVCLLNNFYPREAKVQWKVDNALQSGNSQESVTEQDSKDSTYSLSSTLTLSKADYEKHKVYACEVTHQGLSSPVTKSFNRGEC | pTrkA counts per second, NGF +10 pM mAb [7]: 3.68e+06 counts per second; pTrkA counts per second, NGF +100 pM mAb [7]: 2.95e+06 counts per second; pTrkA counts per second, NGF +1 nM mAb [7]: 2.67e+06 counts per second; pTrkA counts per second, NGF +10 nM mAb [7]: 1.53e+06 counts per second; pTrkA counts per second, NGF +100 nM mAb [7]: 1.58e+06 counts per second; pTrkA counts per second, NGF +1 uM mAb [7]: 1.3e+06 counts per second; IC50 [8]: 0.28 nM; % Max Stimulation of neurite outgrowth [9]: 7%; IC50, inhibition of NGF-induced neurite outgrowth [9]: 0.06 nM; Absorbance 450 nm [10]: 0.56
3 | 5 nM | 0.0011 s⁻¹ | 220000 M⁻¹ s⁻¹ | 6.7 nM | 0.0013 s⁻¹ | 190000 M⁻¹ s⁻¹ | 6.9 nM | 0.0013 s⁻¹ | 190000 M⁻¹ s⁻¹ | 10.5 nM | 0.0012 s⁻¹ | 120000 M⁻¹ s⁻¹ | 6.8 nM | 0.0013 s⁻¹ | 190000 M⁻¹ s⁻¹ | 0.15 | 42% | 0.72 nM | 4.79e+06 counts per second | 4.86e+06 counts per second | mAb B (antibody, human IgG4 S228P, kappa, F234A L235A, Human IgG4PAA/Kappa) heavy: not shown light: DIVMTQTPLSSPVTLGQPASISCRSSQSLVHRAGNTYLSWLQQRPGQPPRLLIYKISNRFSGVPDRFSGSGAGTDFTLKISRVEAEDVGVYYCMQARQFPLTFGGGTKVEIKRTVAAPSVFIFPPSDEQLKSGTASVVCLLNNFYPREAKVQWKVDNALQSGNSQESVTEQDSKDSTYSLSSTLTLSKADYEKHKVYACEVTHQGLSSPVTKSFNRGEC | pTrkA counts per second, NGF +10 pM mAb [7]: 4.46e+06 counts per second; pTrkA counts per second, NGF +100 pM mAb [7]: 5.16e+06 counts per second; pTrkA counts per second, NGF +1 nM mAb [7]: 3.3e+06 counts per second; pTrkA counts per second, NGF +10 nM mAb [7]: 2.87e+06 counts per second; pTrkA counts per second, NGF +100 nM mAb [7]: 2.34e+06 counts per second; pTrkA counts per second, NGF +1 uM mAb [7]: 2.99e+06 counts per second; IC50 [8]: 0.27 nM; % Max Stimulation of neurite outgrowth [9]: 10%; IC50, inhibition of NGF-induced neurite outgrowth [9]: 0.07 nM; Absorbance 450 nm [10]: 0.55
